For one test, the target named is T1, CD38-ECD-Cyno (cynomolgus monkey, UniProt Q5VAN0 44-301).
T1 construct: Recombinant protein expressed in HEK293F cells and purified on Ni-NTA; Coated on the ELISA plate at 10 ng/well; also called cynomolgus monkey CD38; cynomolgus monkeys CD38; not shown: polyhistidine tag added at the end of the gene
The test is described as follows: ELISA, plate coated with CD38-ECD-Cyno (10 ng/well), anti-human Fc-HRP detection. The procedure: The microplates were coated with corresponding recombinant proteins and closed with PBST containing 1% bovine serum albumin (PBST is a phosphate buffer containing 0.05% Tween-20). The tested antibody was diluted in a gradient and it was transferred to a microplate coated with recombinant protein. The sample was incubated at room temperature for half an hour. After washing the plate, appropriately diluted HRP (Horseradish Peroxidase) labeled sheep anti human antibody (Fc specific, purchased from Sigma) was added and incubated at room temperature for half an hour. After washing, 100 μL color developing solution with TMB(3,3′,5,5′-Tetramethylbenzidine) as substrate was added to each well and incubated at room temperature for 1˜5 min. The reaction was terminated by adding 50 μL termination solution (2 M H₂SO₄). The board reader (SpectraMax 190) reads OD450. GraphPad Prism7 was used for mapping and data analysis, and EC50/IC50 was calculated.
Microplate (10 ng/well) was coated with CD38-ECD-Cyno, and the binding ability of CD38-ECD-Cyno to 50G12-Hu-IgG1, OKT10-Hu-IgG1, Daratumumab-IgG1, and Isatuximab-IgG1 was determined by ELISA.
Background: In an ELISA, binding on a coated surface is turned into a signal by an enzyme label.

The next test deals with T2, Human CD38 protein (human, UniProt P28907 43-300, limits assumed, biotinylated with EZ-Link NHS-LC-Biotin (sites not given)).
T2 construct: Biotinylated and captured on a Biacore CAP chip; also called CD38-biotin; Biotin-CD38
As to the kind of experiment: SPR, Biacore 8K, biotinylated CD38 captured on CAP chip, antibody as analyte, 1:1 model. (In general: In SPR one partner is held on a chip, and binding of the other changes the refractive index at the surface.)

The term EC50 denotes the concentration needed to bring the measured effect to its halfway point. A higher EC50 goes with weaker potency. In general, Kd refers to the free concentration of one partner at which half of the binding sites on the other are occupied at equilibrium, for simple one-to-one binding. High values mean weaker binding, low ones tighter binding. The term koff denotes the rate constant with which the complex falls apart. A low value points to slow dissociation. By kon is commonly meant the second-order rate constant of association.

T1 sequence (Q5VAN0 44-301): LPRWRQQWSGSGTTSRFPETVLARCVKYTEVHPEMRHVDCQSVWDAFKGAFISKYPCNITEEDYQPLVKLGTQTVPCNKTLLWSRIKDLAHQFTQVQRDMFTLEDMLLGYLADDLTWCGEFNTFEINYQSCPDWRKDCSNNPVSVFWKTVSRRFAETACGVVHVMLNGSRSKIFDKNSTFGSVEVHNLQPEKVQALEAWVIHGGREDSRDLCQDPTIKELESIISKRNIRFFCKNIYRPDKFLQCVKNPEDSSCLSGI

B1: OKT10-Hu-IgG1 (antibody, V domains shown)
VH: EVQLVESGGGLVQPGGSLRLSCAASGFDFSRSWMNWVRQAPGKGLEWVSEINPDSSTINYTTSLKDRFTISRDNAKNSLYLQMNSLRAEDTAVYYCARYGNWFPYWGQGTLVTVSS
VL: DIQMTQSPSSLSASVGDRVTITCKASQNVDTNVAWYQQKPGKAPKALIYSASYRYSGVPSRFSGSGSGTDFTLTISSLQPEDFATYYCQQYDSYPLTFGQGTKVEIKR
notes: Humanized anti-human CD38 IgG1/kappa; also called humanized OKT10
As for B1, the EC50 with CD38-ECD-Cyno came to 0.132 nM.

B2: 50G12-Hu-IgG1 (antibody)
heavy: not shown
light: DIQMTQSPSSLSASVGDRVTITCTASSSVSSSYLHWYQQKPGKAPKLWMYGTSNLASGVPSRFSGSGSGTDYTLTISSLQPEDFATYYCHRYHRSPWTFGQGTKVEIKRTVAAPSVFIFPPSDEQLKSGTASVVCLLNNFYPREAKVQWKVDNALQSGNSQESVTEQDSKDSTYSLSSTLTLSKADYEKHKVYACEVTHQGLSSPVTKSFNRGEC
notes: Humanized anti-human CD38 IgG1/kappa, expressed in HEK293F cells and purified on Protein A; also called 50G12-Humanized; unmutated antibody 50G12-Hu-IgG1
In the test with Human CD38 protein, B2 displayed a Kd of 3.58 nM, a koff of 0.000613 s⁻¹ and an on-rate constant (kon) of 171000 M⁻¹ s⁻¹.

B3: 50G12-L309W-E345R (antibody, human IgG1, kappa)
heavy: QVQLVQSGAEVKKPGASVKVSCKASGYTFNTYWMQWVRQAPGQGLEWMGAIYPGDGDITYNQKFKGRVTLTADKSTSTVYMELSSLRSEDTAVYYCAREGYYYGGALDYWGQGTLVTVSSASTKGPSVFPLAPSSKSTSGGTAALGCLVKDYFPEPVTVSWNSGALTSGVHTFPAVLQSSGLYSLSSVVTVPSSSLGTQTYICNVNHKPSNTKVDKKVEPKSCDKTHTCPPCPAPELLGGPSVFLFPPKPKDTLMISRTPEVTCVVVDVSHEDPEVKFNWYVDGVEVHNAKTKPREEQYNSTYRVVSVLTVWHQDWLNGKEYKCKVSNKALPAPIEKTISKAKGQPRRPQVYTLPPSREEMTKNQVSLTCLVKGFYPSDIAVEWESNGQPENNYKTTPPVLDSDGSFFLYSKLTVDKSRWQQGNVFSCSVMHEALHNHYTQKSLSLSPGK
light: B2 light
notes: also called 50G12-Hu-IgG1-L309W-E345R
Take B3: in the test with Human CD38 protein, binding was put at a Kd of 2.99 nM, the koff is 0.00103 s⁻¹ and the kon turned out to be 346000 M⁻¹ s⁻¹.

For the origin of these results see patent US20250129175A1 (SUNSHINE GUOJIAN PHARMACEUTICAL SHANGHAI, published 2025).
